Assay results as given in paper PMC9628938, “DED Interaction of FADD and Caspase-8 in the Induction of Apoptotic Cell Death” (Journal of Microbiology and Biotechnology, 2022).

Assays:
Assay in all cases: SPR; Biacore T100; FADD DED amine-coupled to CM5 chip; caspase-8 DEDs 250 to 5,000 nM as analyte in HBS-EP+ (10 mM HEPES pH 7.4, 150 mM NaCl, 3 mM EDTA, 0.05% P20), 25°C; apparent KD
Conditions in all cases: both partners purified
[1] = molecular target: T1, caspase-8 DEDs (residues 1-188), His-tagged, wild type (human, UniProt Q14790 1-188)
T1 construct: human caspase-8, tandem death-effector domains DED1 and DED2, residues 1-188; Cloned in pET-28a; also called His-caspase-8 DEDs (1-188); wild-type caspase-8 DEDs; source: E. coli BL21(DE3), purified (Ni-NTA, gel filtration); also co-expressed with FADD DED in E. coli and co-purified
T1 sequence (Q14790 1-188): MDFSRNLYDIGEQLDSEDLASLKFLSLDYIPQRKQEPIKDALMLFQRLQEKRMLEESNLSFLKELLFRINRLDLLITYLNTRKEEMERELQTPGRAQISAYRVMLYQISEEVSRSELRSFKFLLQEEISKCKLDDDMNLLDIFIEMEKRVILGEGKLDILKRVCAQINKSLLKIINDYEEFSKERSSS

[2] = molecular target: T2, caspase-8 DEDs (residues 1-188) R5E/I128A, His-tagged (human, UniProt Q14790 1-188, R5E | I128A)
T2 construct: human caspase-8, tandem death-effector domains, residues 1-188; also called Caspase-8 DEDs (R5E/I128A); source: E. coli BL21(DE3), purified (Ni-NTA, gel filtration)
T2 sequence (Q14790 1-188 R5E/I128A): as the sequence (Q14790 1-188) above, with R5E, I128A counted along it

[3] = molecular target: T3, caspase-8 DEDs (residues 1-188) I128A, His-tagged (human, UniProt Q14790 1-188, I128A)
T3 construct: human caspase-8, tandem death-effector domains, residues 1-188; also called Caspase-8 DEDs (I128A); source: E. coli BL21(DE3), purified (Ni-NTA, gel filtration)
T3 sequence (Q14790 1-188 I128A): as the sequence (Q14790 1-188) above, with I128A counted along it

B1: FADD DED (residues 1-83), His-tagged (domain or fragment, human, UniProt Q13158 1-83, looked up)
chain: MDPFLVLLHSVSSSLSSSELTELKFLCLGRVGKRKLERVQSGLDLFSMLLEQNDLEPGHTELLRELLASLRRHDLLRRVDDFE
notes: human FADD (MORT1), death-effector domain construct, residues 1-83; Cloned in pET-28a; also called wild-type FADD DED; Fas-associated death domain; source: E. coli BL21(DE3), purified (Ni-NTA, gel filtration); also co-expressed with caspase-8 DEDs in E. coli and co-purified
For B1, the Kd [1] was 38 nM, the Kd [2] was 236 nM and the Kd [3] was 61 nM.
